{"source": "the DeepSol protein solubility set", "data": [{"assay": "soluble on expression in E. coli; label from the status in PepcDB or PDB records", "values": [{"sequence": "MGSDKIHHHHHHMEVFVLGCAGSGKSTFVRSFSEFLQERGYSVKCVNLDPASDPAYRADKNVREFVKTENVMVEYGLGVNGALIKSVEIASEHAEELKAEGDFVLYDTPGQLELFIYSEAGRKFVRELSGSFSCSLFLVDLTTVTDPESLLSAIMQDVIVSLRLSLPTLTAFTKSDVADVDVRSLLGEIKHREGVLAELMEKLVDFIELTTIPYRPIKISNIKKTGYEELFSALYELFCAAET", "soluble on expression in E. coli": "not soluble"}, {"sequence": "MGSDKIHHHHHHMFDDADDIDTETVEEWEASAEFGLLYTSGNTETESLKGKFTASRDVQNWRHKGVFDYYTSEQKDQDTGEMNETADRIFISAQSNYKFDPDSRDSLFVFGSYEEDEFSGFAYQATVATGYGARYRYDEDIYADYEIGPGYSRTKPVQVEGEPPVESDGSMILRLAGSLNWKISENSRFSALLSSEVGEDNTKSKAELSVSANINSALAMKVSLGANHNSHVADESIEKLDTETAVTLVYSF", "soluble on expression in E. coli": "not soluble"}, {"sequence": "MGSDKIHHHHHHMFDWENVRHFLAVARIGTLSGAARSLKVDHATVSRRLSALEDEIKTRLIERLPRACKLTLIGQRVFELAQGMEEDAYAIERFVDASRSPLSGKVSLSAPPVLVAHFLAKHLADFRRVHPGVQLSVSGEARQISLSRREADVALRLVRPEEGTSVVRKLGRMSFDLYASRDYPHLHNPSAWEFISYDAGFTDMPQQKWLMSVARGRPIACEISDINGHLAATQAGAGVAGLPDFLADTDAKLQRVAYDGEPFSRDIWLAVHRDLRRSPHVRAVMDFLLKIVKENPAFTISG", "soluble on expression in E. coli": "not soluble"}, {"sequence": "MGSDKIHHHHHHMFIDKQTVERHFSKSAHLYDGVNHVQRKMAHRLVQLLDEKRRDAKDEPRAILDIGCGTGWLTRECLKSFPQATIDAVDLSKQMLEVAEKNVSSHPNVQFIQGDIEKMVREKPSAKTYDVIVANAVFQWLDKPTETVAQLRSWLKPNGLLLFSTFGPDTFYELHDSFQLAAKQLGIIDERRGLDYLSKTEWKRTLDGLFAELTIHEEKAIESYATVEQFLHTVKKMGATYSQSSRPLSKRYYQLMKEIYEQRYRTEDSIPATYDCLYVLCQA", "soluble on expression in E. coli": "not soluble"}, {"sequence": "MGSDKIHHHHHHMFKKVAADVLGLSDVGSVITPKDYDKVDADDYVMHEDGEKIYFLIKSKSDEYCFTNKGLLHLDGTSATSKKRTLRRFSYSKYQIKNVALETAGTIDLDVEIKFQMGDEHYSIDVHKKHIEELKDLYKALLKIEEISYDNDITLQYAHKSLDMASNAFSRISNAQVNLAEQFKEMNEIAFNWLVDTKKQYNVKDYGFVFEKFINN", "soluble on expression in E. coli": "not soluble"}, {"sequence": "MGSDKIHHHHHHMFKLIIVEDEHLIRKWLEIAVDYSALGIQVVGTASHGQEGMKLIQEKEPHIVLTDITMPIMDAFMMFEATRTLSYEKVILSGYNDFQNAKKAMQYGAVDFLSKPIDTKELTECLQKIVLRLRVSTRQETPFLEEYQTLLTSIQQIDTQNQIIQQILEFVHQHYCMHFTISSIAENLGYSESYLYKVIKEDFPMTLNEYILRYRLKQAIDKMAESPNSPLSDISEQIGFSDYKYFAKVFKKYLHISPKELKLMDKNH", "soluble on expression in E. coli": "not soluble"}, {"sequence": "MGSDKIHHHHHHMFLLPSTITRNVIFISHATPEDNDFTIWLASRLQAEGFEVWIDKQALVGGEKFWQEIDQVIRHKAVKFLLVYSENICYQKQRGILKNGVAKEISMAEGIATTNGLKDFMILLNVDGSEYNLFIGADTLNQVPFYENWAGGYSQLRKKFKKEGLEPTGSPVGDFSKWYEDEYVIHHGIENLHEIYYDCWWPIPELPESFFVYIFPNNVVASQVHQRSKYPTGKASNILASFYDTSEFEVEIDGQLERIPFTAKHEIKVSDVIARTVRLGFPGTRDVENYFRSLLQRTFHLIMKERHLHWYEMANMKQAYFFSAKSHPKIKFEYPHRATKAGKSKVIFGKHLSSFWHYALSAKPIITPQLAFGLKSHIVFTTDGVKLWDDKAKMHTARRRKGRLMFNEEWRDLLFAFLHALCQGGTTVNIMLNPTFELALKPWTNTYHSDFGYIEPKGQDRHDILAAEYEYQDREDIDPDEVANV", "soluble on expression in E. coli": "not soluble"}, {"sequence": "MGSDKIHHHHHHMFRLAKEELEKLGAMITATEIYQQPGLWKEAHQLYFDQLEKIESFLKSIKEKHDFVHVVFTGAGTSDFVGQSIANYLNQVNDLKHIRFSAIGTVELVSRPHDYLQADLPTILVSFARSGNSPESVAAVEVAKQLVDKLYQVTITCAPEGKLALAAEGDVENLLLLQPAGSNDKGFAMTGSYSCMALTALLVFSPASQEEKAAWVEIIARLGQDVLDREDYVQDLINLDFERVIYLGSGGFYGLAHEAQLKILELTAGKIATMYESPLGFRHGPKSFINEKTLIFLFASNDAYTRQYDVDLLNEVHGDGIAERIVALSADKLVGTEAANFVLAEGGADLPDVFLTFPYILFAQTVSIMAAIKCNNLPDTPSPTGTVNRVVQGVIIHPLEK", "soluble on expression in E. coli": "not soluble"}]}]}
